The target in assay [1] is T1, human interleukin-2 (hIL2) (human, UniProt P60568 21-153). Nature of the assay: cell-based or functional assay.
The target of assay [2] is T1, human interleukin-2 (hIL2). Kind of assay: cell-based or functional assay. This is another data set of the same source.
In assay [3] the target is T1, human interleukin-2 (hIL2). Kind of assay: BiaCore, format not described. (Surface plasmon resonance follows binding to a sensor surface in real time, without labels.)
Assay [4] addresses T1, human interleukin-2 (hIL2). Nature of the assay: Cell Surface (binding to cell surface-associated hIL2), method not described; Cell Surface, not BiaCore.
The target in assay [5] is T2, human IL2 receptor on NKL cells (human, UniProt P01589 22-272; P14784 27-551; P31785 23-369).
T2 construct: whole, on cells; also called hIL2 receptor; IL2 receptor component(s)
T2 sequence (looked up) 1: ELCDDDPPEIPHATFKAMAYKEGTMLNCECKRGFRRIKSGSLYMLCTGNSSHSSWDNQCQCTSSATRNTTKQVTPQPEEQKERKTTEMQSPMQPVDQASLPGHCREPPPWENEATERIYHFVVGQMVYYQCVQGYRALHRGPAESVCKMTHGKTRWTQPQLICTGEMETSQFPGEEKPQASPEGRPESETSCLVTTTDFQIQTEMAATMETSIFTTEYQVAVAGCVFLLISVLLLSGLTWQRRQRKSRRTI
T2 sequence (looked up) 2: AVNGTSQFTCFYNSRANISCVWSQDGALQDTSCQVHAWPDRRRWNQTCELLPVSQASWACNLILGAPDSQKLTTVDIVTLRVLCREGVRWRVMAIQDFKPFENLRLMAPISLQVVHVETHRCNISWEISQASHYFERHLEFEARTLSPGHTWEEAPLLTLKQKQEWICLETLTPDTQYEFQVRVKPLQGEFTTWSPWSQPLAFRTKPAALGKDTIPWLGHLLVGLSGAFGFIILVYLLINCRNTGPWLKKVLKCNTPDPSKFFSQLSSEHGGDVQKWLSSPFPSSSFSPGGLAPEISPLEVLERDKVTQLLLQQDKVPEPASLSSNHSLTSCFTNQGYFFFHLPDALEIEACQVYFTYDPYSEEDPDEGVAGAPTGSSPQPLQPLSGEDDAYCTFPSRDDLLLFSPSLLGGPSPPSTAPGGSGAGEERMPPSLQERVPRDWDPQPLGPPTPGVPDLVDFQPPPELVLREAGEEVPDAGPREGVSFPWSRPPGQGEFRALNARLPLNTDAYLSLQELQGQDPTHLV
T2 sequence (looked up) 3: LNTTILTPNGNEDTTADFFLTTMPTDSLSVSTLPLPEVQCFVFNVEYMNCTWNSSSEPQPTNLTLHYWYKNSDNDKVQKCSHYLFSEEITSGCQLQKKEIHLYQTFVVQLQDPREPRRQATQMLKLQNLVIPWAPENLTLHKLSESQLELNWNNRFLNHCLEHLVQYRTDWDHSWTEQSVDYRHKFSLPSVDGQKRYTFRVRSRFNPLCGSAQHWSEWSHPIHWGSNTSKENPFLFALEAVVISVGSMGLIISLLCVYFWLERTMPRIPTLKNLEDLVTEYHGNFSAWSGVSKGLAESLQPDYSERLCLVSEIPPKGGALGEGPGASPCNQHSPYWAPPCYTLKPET
Nature of the assay: FACS on hIL2-deprived NKL cells without hIL2; fluorescence-labeled goat anti-human IgG detection.

For assay [6], the target named is T3, Proleukin (formulated recombinant hIL2, expressed in E. coli), PEG-biotinylated (human, UniProt P60568 22-153, PEG-biotinylated (site not stated)).
T3 construct: also called PEG-biotinylated Proleukin; hIL2 antigen
Nature of the assay: ELISA: PEG-biotinylated Proleukin on streptavidin plate, 293 cell supernatant antibody, anti-human IgG-HRP, ABTS, absorbance at 405 nm.

Assay [7] deals with T3, Proleukin (formulated recombinant hIL2, …). The description is as above. This is another data set of the same source.
Assay [8] shares this target. Described as above. This is another data set of the same source.
The target in assay [9] is T1, human interleukin-2 (hIL2). Kind of assay: FACS on NKL cells loaded with recombinant hIL2.

Here are results for 9 molecules from patent US20080317746A1 (MICROMET, published 2008).

For orientation: Kd means the free concentration of one partner at which half of the binding sites on the other are occupied at equilibrium, for simple one-to-one binding. Higher therefore signals lower affinity. As a reminder, the EC50 (read off the curve) is the midpoint of the concentration-response curve.

Where a chain is given by its changes, count along the chain named. Like-named read-outs stand apart in the source and are kept apart here.

T1 sequence (P60568 21-153): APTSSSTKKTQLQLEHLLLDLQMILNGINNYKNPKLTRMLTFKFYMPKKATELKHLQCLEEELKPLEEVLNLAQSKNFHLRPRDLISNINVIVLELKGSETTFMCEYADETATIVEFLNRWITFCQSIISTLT
T3 sequence (P60568 other isoform, or with tags, fused parts or gaps limits assumed): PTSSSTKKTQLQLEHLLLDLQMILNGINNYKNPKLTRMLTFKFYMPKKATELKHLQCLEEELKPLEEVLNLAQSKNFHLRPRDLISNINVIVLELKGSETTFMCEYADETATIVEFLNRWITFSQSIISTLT

B1: Anti-IL2 (humanized anti-IL2 IgG1 antibody) (antibody, V domains shown)
VH: EVQLVESGGGLVQPGGSLRLSCAASGFTFSSYTLAWVRQAPGKGLEWVAAIDSSSYTYSPDTVRGRFTISRDNAKNSLYLQMNSLRAEDTAVYYCARDSNWDALDYWGQGTTVTVSS
VL: DIQMTQSPSSLSASVGDRVTITCKASQNVGTNVGWYQQKPGKAPKALIYSASFRYSGVPSRFSGSGSGTDFTLTISSLQPEDFATYYCQQYYTYPYTFGGGTKVEIKR
notes: IgG1; Its VL carries KAPKA in framework 2
B1: in [1], the “IC50, IL2-dependent proliferation of primary human NK cells (donor shown)” value is around 0.3 nM and the “IC50 of IL2-dependent CD124 cell surface expression on CTLL-2 cells” value is around 0.33 nM. For the same molecule, in [2], the “IC50, IFN-gamma production by Human NK Cells” value turned out to be 0.13 nM and the “IC50, Proliferation of Human Primary NK Cells” value was determined as 0.1 nM. Also, binding in [3] was put at a Kd of 0.68 nM. The molecule also returned a Kd in assay [4] of 2.5 nM. Besides, in [5], the binding result is given as “no binding”.

B2: cLC + hHC (chimeric light chain with humanized heavy chain) (antibody, human IgG1, V domains shown)
VH: B1 VH
VL: DIVMTQSQKFMSTSVGDRVSVTCKASQNVGTNVGWYQQKPGQSPKALIYSASFRYSGVPDRFTGSGSGTDFSLTISNVKSEDLAEYFCQQYYTYPYTFGGGTKLEIK
notes: Human IgG1 C1, C2, C3 and human Ckappa; Tested as 293 cell supernatant; also called cLH+hHC
With B2, the “EC50 (read off the curve)” value in assay [6] is around 0.1 µg/mL.

B3: HMH + hHC (VL with human frameworks 1 and 3, mouse framework 2) (antibody, V domains shown)
VH: B1 VH
VL: DIQMTQSPSSLSASVGDRVTITCKASQNVGTNVGWYQQKPGQSPKALIYSASFRYSGVPSRFSGSGSGTDFTLTISSLQPEDFATYYCQQYYTYPYTFGGGTKLEIK
notes: Human IgG1 and human Ckappa
As for B3, the “EC50 (read off the curve)” value in assay [7] was around 0.06 µg/mL.

B4: MHM + hHC (VL with human framework 2, mouse frameworks 1 and 3) (antibody, human IgG1, V domains shown)
VH: B1 VH
VL: B2 VL with Q42K, S43A, A46L
notes: Human IgG1 and human Ckappa
With B4, in [7], the “EC50 (read off the curve)” value was around 0.06 µg/mL.

B5: hLC_KAPKA + hHC (antibody, V domains shown)
VH: B1 VH
VL: B3 VL with Q42K, S43A, L104V
notes: Human IgG1 and human Ckappa
B5: the “EC50 (read off the curve)” value in assay [8] was around 0.05 µg/mL.

B6: MMH + hHC (VL with human framework 3, mouse frameworks 1 and 2) (antibody, V domains shown)
VH: B1 VH
VL: B3 VL with Q3V, P8Q, S9K, S10F, L11M, A13T, T20S, I21V
notes: Human IgG1 and human Ckappa
In the case of B6, the “EC50 (read off the curve)” value in assay [7] was around 0.06 µg/mL.

B7: HMM + hHC (VL with human framework 1, mouse frameworks 2 and 3) (antibody, V domains shown)
VH: B1 VH
VL: B2 VL with V3Q, Q8P, K9S, F10S, M11L, T13A, S20T, V21I
notes: Human IgG1 and human Ckappa
On to B7, for which the “EC50 (read off the curve)” value in assay [7] was around 0.06 µg/mL.

B8: hLC + hHC (humanized light chain with humanized heavy chain) (antibody, human IgG1, V domains shown)
VH: B1 VH
VL: B3 VL with Q42K, S43A, A46L, L104V
notes: Human IgG1 C1, C2, C3 and human Ckappa; Tested as 293 cell supernatant; also called hLH+hHC
Consider B8, for which, in assay [6], the “EC50 (read off the curve)” value was around 0.2 µg/mL.

B9: mAb202 (commercially available from R&D Systems) (antibody, V domains shown)
VH: DVRLVESGGGLVKPGGSLKLSCAAYGFTFSSYTLAWVRQTPEKRLEWVAAIDSSSYTYSPDTVRGRFTISRDNAKNTLYLQMSSLKSEDTAMYYCTRDSNWDALDYWGQGTSVIVSS
VL: B2 VL
notes: Mouse monoclonal antibody; also called original mAb; parental mAb202
For the molecule B9, the binding result in [9] is on record as “binds”.
